For data set [1], the target named is T1, FiBAP (M38 β-aspartyl peptidase from Fervidobacterium islandicum AW-1) (Fervidobacterium islandicum, UniProt A0AAI8CML9).
T1 construct: gene iadA; full length (M1-E386), 6xHis tag (N-terminal per methods with pET-28a, C-terminal per results), E. coli BL21(DE3); 42 kDa monomer, 318 kDa octamer (tetramer of dimers); binuclear Zn
T1 sequence (A0AAI8CML9 1-387): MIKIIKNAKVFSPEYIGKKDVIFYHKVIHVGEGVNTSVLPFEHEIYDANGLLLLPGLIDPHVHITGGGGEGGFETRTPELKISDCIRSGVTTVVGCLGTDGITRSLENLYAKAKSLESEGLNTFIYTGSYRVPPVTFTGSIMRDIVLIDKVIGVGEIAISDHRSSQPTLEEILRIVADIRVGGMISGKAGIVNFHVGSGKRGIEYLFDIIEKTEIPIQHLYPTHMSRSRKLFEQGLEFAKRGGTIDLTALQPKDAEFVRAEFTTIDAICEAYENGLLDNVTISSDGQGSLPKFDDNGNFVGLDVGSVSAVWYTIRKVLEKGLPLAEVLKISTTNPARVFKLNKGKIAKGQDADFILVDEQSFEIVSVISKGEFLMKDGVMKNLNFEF
Description: enzyme activity inhibition (data not shown). The note with it: substrate analog inhibitor, conditions not given. The class given is biochemical.

Data set [2] addresses M38 β-aspartyl peptidase from Fervidobacterium islandicum AW-1 (FiBAP) (Fervidobacterium islandicum AW-1). Description: SEC; Superdex 200 10/300 GL, 25 mM Tris-HCl pH 7.5, 150 mM NaCl; calibrated with blue dextran, thyroglobulin, ferritin, aldolase, conalbumin, ovalbumin; apparent Mr 318,000 against 42,000 by SDS-PAGE; octamer. (In gel filtration, larger molecules generally elute earlier.)

For data set [3] the target is unchanged. In words: crystal structure; hanging drop vapor diffusion at 20°C; ligand-free (I422, one subunit in the asymmetric unit, 2.6 Å) and with Cbz-β-Asp-Leu (P22(1)2, four subunits, 2.7 Å); octamer (tetramer of dimers) from symmetry-related molecule analysis.
The target in data set [4] is T1, FiBAP (M38 β-aspartyl peptidase from Fervidobacterium islandicum AW-1). Description: X-ray crystal structure, […] Å. The data set is classed as binding. The settings on record: co-crystallised with Cbz-β-DL, but only the β-DL moiety has density; wild type; binuclear Zn active site; pH about 5.
Substrate in data set [5]: CC(C)C[C@H](NC(=O)C[C@H](N)C(=O)O)C(=O)O
In words: ninhydrin assay of free amino acids, Michaelis-Menten fit. The data set is classed as biochemical, Fervidobacterium islandicum. The settings on record: 50 mM HEPES pH 8.0, 1 mM CoCl2, 80°C, 10 min, 1–32 mM substrate. The text has this: ninhydrin assay of free amino acids, Michaelis-Menten fit on FiBAP ([…] β-aspartyl peptidase from Fervidobacterium islandicum AW-1) | steady-state kinetics analysis of FiBAP with β-DL as substrate, yielding Km and Vmax values

The values that follow come from article PMC7774594, “Functional Characterization of Primordial Protein Repair Enzyme M38 Metallo-Peptidase From Fervidobacterium islandicum AW-1” (Frontiers in Molecular Biosciences, 2020).

As for `CC(C)C[C@H](NC(=O)C[C@H](NC(=O)OCc1ccccc1)C(=O)O)C(=O)O` [N-carbobenzoxy-β-Asp-Leu], in data set [1], the “enzyme activity inhibition (data not shown)” value was “our substrate analog (Cbz-β-DL) containing Cbz inhibited enzyme activity in our enzyme assays”.

As usually defined, the stoichiometry N is the number of molecules, sites or subunits per partner or assembly. For the molecule “M38 β-aspartyl peptidase from Fervidobacterium islandicum AW-1 (FiBAP) (enzyme)”, the stoichiometry N in data set [2] and in data set [3] was 8 in each case.

With `CC(C)C[C@H](NC(=O)C[C@H](N)C(=O)O)C(=O)O` [β-Asp-Leu], in data set [4], the “X-ray crystal structure, 2.7 Å” value is on record as “included distinct electron density only for the β-DL moiety lacking carbamazepine (Cbz)”.

B1: FiBAP (M38 β-aspartyl peptidase from Fervidobacterium islandicum AW-1) (Fervidobacterium islandicum) (protein)
chain: T1 sequence (A0AAI8CML9 1-387)
notes: full length (M1-E386), 6xHis tag (N-terminal per methods with pET-28a, C-terminal per results), E. coli BL21(DE3); 42 kDa monomer, 318 kDa octamer (tetramer of dimers); binuclear Zn
As usually defined, the Km is the concentration of substrate that gives half-maximal velocity. B1: the Km in data set [5] came to 5.23 ± 1.59 mg/mL.
